Target: T1, biotinylated CD59 (Homo sapiens, UniProt P13987)
T1 construct: Recombinant soluble human CD59 with an additional C-terminal cysteine residue
T1 sequence (P13987 26-102 limits assumed): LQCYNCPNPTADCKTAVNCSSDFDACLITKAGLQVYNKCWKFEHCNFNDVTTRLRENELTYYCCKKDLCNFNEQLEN
Assay: mRNA-display cyclic peptide screen against CD59-biotin, NGS abundance after 6th selection round
Details: for Counts (raw counts for peptide sequence), Seq I: NGS sample Seq I; for Counts (raw counts for peptide sequence), Seq I / Counts (raw counts for peptide sequence), Seq II / Counts Seq I / Counts Seq II: sheet R6 (6th selection round); for Counts (raw counts for peptide sequence), Seq II: NGS sample Seq II; for Percentage of the pool, averaged across the two sequencing samples: average of Seq I and Seq II; for Percentage of the pool, averaged across the two sequencing samples / Percentage of the pool, Seq I / Percentage of the pool, Seq II / Percentage Seq I / Percentage Seq II / Percentage Average: sheet R6; for Percentage of the pool, Seq I: counts normalised by total counts of NGS sample Seq I; for Percentage of the pool, Seq II: counts normalised by total counts of NGS sample Seq II; for Percentage Seq I: counts normalised by total counts of sample Seq I; for Percentage Seq I / Percentage Seq II: percentage of the pool; for Percentage Seq II: counts normalised by total counts of sample Seq II; for Percentage Average: percentage of the pool averaged across the two sequencing samples; for Counts Seq I / Counts Seq II: raw NGS counts of peptide sequence; for Counts Seq I: sequencing sample Seq I; for Counts Seq II: sequencing sample Seq II
Procedure, shortened: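 Peptide–mRNA fusions were made by in vitro translation with a customised PURE express kit. The kit lacked release factor 1 and methionine and was supplemented with […] initiator tRNA carrying N-chloroacetyl-d-tyrosine. Thioether macrocycles were formed, then enriched and amplified over iterative rounds on CD59-biotin immobilised on streptavidin beads. NGS read counts per sequence were recorded after the 6th selection round.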

| Sequence | Counts (raw counts for peptide sequence), Seq I | Counts (raw counts for peptide sequence), Seq II | Percentage of the pool, averaged across the two sequencing samples [%] | Percentage of the pool, Seq I [%] | Percentage of the pool, Seq II [%] | Percentage Seq I [%] | Percentage Seq II [%] | Percentage Average [%] | Counts Seq I | Counts Seq II |
| --- | --- | --- | --- | --- | --- | --- | --- | --- | --- | --- |
| DYNRIVWGRGNAAAAAAARTGGG | 89 | 6 | 0.017 | 0.020 | 0.014 | – | – | – | – | – |
| CFSSRTGTTSV | 39 | 10 | 0.016 | 0.009 | 0.023 | – | – | – | – | – |
| SAWGNRYIAYY | 47 | 6 | 0.012 | 0.011 | 0.014 | – | – | – | – | – |
| FVFGNRHFRTE | – | – | – | – | – | 0.408 | 0.492 | 0.450 | 1785 | 212 |
| YIVGSSDYTRG | – | – | – | – | – | 0.417 | 0.388 | 0.402 | 1825 | 167 |
| SAYGSRDFAWA | – | – | – | – | – | 0.024 | 0.023 | 0.024 | 106 | 10 |
| LWGAANYLKVIY | – | – | – | – | – | 0.046 | 0.023 | 0.035 | 201 | 10 |
| CIRGTPTTV | 56 | 3 | 0.010 | 0.013 | 0.007 | – | – | – | – | – |
| CFSSRVQSGDT | – | – | – | – | – | 0.214 | 0.190 | 0.202 | 936 | 82 |
| SAWGNRQIQHY | 74 | 3 | 0.012 | 0.017 | 0.007 | – | – | – | – | – |
| RVGSQFCAQL | 33 | 9 | 0.014 | 0.00754 | 0.021 | – | – | – | – | – |
| CFVLRRNFEGT | 53 | 5 | 0.012 | 0.012 | 0.012 | – | – | – | – | – |
| FVRGNRYSVLG | 64 | 5 | 0.013 | 0.015 | 0.012 | – | – | – | – | – |
| CFSHRSNSDGI | – | – | – | – | – | 0.092 | 0.081 | 0.087 | 404 | 35 |
| GRLNECHAIWP | – | – | – | – | – | 0.112 | 0.104 | 0.108 | 488 | 45 |
| WAKGSDTFTSG | 141 | 1 | 0.017 | 0.032 | 0.00232 | – | – | – | – | – |
| DSRNQCHTWKT | 87 | 6 | 0.017 | 0.020 | 0.014 | – | – | – | – | – |
| CFARRLSASSGT | – | – | – | – | – | 0.024 | 0.028 | 0.026 | 106 | 12 |
| HCWVRGSRDYT | – | – | – | – | – | 0.028 | 0.046 | 0.037 | 122 | 20 |
| FVRGDLHSVLG | – | – | – | – | – | 0.058 | 0.044 | 0.051 | 253 | 19 |
| RCWASGSRDWR | 95 | 6 | 0.018 | 0.022 | 0.014 | – | – | – | – | – |
| LCAENPLRPR | – | – | – | – | – | 0.075 | 0.077 | 0.076 | 329 | 33 |

| Sequence | Counts (raw counts for peptide sequence), Seq I | Counts (raw counts for peptide sequence), Seq II | Percentage of the pool, averaged across the two sequencing samples [%] | Percentage of the pool, Seq I [%] | Percentage of the pool, Seq II [%] | Percentage Seq I [%] | Percentage Seq II [%] | Percentage Average [%] | Counts Seq I | Counts Seq II |
| --- | --- | --- | --- | --- | --- | --- | --- | --- | --- | --- |
| YVRGDLYSVLG | 40 | 5 | 0.010 | 0.009 | 0.012 | – | – | – | – | – |
| VLCHRWHVGSHR | 54 | 7 | 0.014 | 0.012 | 0.016 | – | – | – | – | – |
| CFSRRSTSSQST | – | – | – | – | – | 0.018 | 0.019 | 0.018 | 77 | 8 |
| CFAHRITDPDTQ | – | – | – | – | – | 0.023 | 0.019 | 0.021 | 100 | 8 |
| FVRGDMYSVLG | 39 | 6 | 0.011 | 0.009 | 0.014 | – | – | – | – | – |
| CSAGRLTIDAV | 37 | 6 | 0.011 | 0.00846 | 0.014 | – | – | – | – | – |
| FVRGDLYSVLS | 43 | 4 | 0.010 | 0.010 | 0.009 | – | – | – | – | – |
| WILGSRWWTQR | – | – | – | – | – | 0.021 | 0.021 | 0.021 | 91 | 9 |
| TAWGNRQIQYY | 73 | 7 | 0.016 | 0.017 | 0.016 | – | – | – | – | – |
| YARGDASHTIW | – | – | – | – | – | 0.043 | 0.056 | 0.049 | 186 | 24 |
| CAWGNRHTAYY | – | – | – | – | – | 0.018 | 0.030 | 0.024 | 80 | 13 |
| GRRNECLSRTS | 68 | 3 | 0.011 | 0.016 | 0.007 | – | – | – | – | – |
| HVLGNRSFTRG | – | – | – | – | – | 0.071 | 0.084 | 0.077 | 312 | 36 |
| CYGDRTFIYAWS | 53 | 10 | 0.018 | 0.012 | 0.023 | – | – | – | – | – |
| CAWGNRYTAYY | 68 | 5 | 0.014 | 0.016 | 0.012 | – | – | – | – | – |
| CFQRRTLGPDAI | – | – | – | – | – | 0.094 | 0.088 | 0.091 | 412 | 38 |
| HQECWARGSRE | 68 | 5 | 0.014 | 0.016 | 0.012 | – | – | – | – | – |
| AVWGSAHDRWE | – | – | – | – | – | 0.044 | 0.046 | 0.045 | 193 | 20 |
| CFSRRLTAGAS | – | – | – | – | – | 0.024 | 0.028 | 0.026 | 106 | 12 |
| YAFGSRDITYY | – | – | – | – | – | 0.018 | 0.023 | 0.021 | 78 | 10 |
| WRDRFDQCAL | 67 | 6 | 0.015 | 0.015 | 0.014 | – | – | – | – | – |
| CYGGRTFIYSWS | 46 | 8 | 0.015 | 0.011 | 0.019 | – | – | – | – | – |
